Assay results as given in publication PMC9884178 (Nature, 2022).

Molecular target: T1, WaaL from Cupriavidus metallidurans (CmWaaL) in MSP1E3D1 nanodiscs, as used for ELISA (Cupriavidus metallidurans CH34)
T1 chain: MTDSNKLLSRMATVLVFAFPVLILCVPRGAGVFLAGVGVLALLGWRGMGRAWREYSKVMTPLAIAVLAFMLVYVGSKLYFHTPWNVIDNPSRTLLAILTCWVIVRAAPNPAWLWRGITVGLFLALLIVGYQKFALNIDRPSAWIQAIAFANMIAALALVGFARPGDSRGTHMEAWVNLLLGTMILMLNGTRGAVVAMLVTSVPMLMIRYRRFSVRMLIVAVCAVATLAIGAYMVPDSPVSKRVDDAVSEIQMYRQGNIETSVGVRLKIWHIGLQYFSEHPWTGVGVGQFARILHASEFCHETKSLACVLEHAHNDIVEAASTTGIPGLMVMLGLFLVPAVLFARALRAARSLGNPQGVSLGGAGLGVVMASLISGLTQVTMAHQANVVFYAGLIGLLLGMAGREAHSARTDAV
Experiment: ELISA

B1: WaB10 Fab (synthetic antigen binder against CmWaaL) (Fab, V domains shown)
VH: EVQLVESGGGLVQPGGSLRLSCAASGFNVYSSSIHWVRQAPGKGLEWVAYISSYYGSTYYADSVKGRFTISADTSKNTAYLQMNSLRAEDTAVYYCARIMFKWVSPNMAFDYWGQGTLVTVSS
VL: DIQMTQSPSSLSASVGDRVTITCRASQSVSSAVAWYQQKPGKAPKLLIYSASSLYSGVPSRFSGSRSGTDFTLTISSLQPEDFATYYCQQSYYSLVTFGQGTKVEIK
Question: B1 was tested. Which EC50 did it give?
Answer: 1.87 nM
